Experimental data reported in article PMC7865483.

Target: EE-tagged Pank1β (pantothenate kinase 1β), stably overexpressed in HEK293 cells (UniProt Q8TE04)
Test: proximity ligation; in situ PLA (Duolink) on fixed HEK293/Pank1β cells with anti-Pank1 and anti-CoAsy, anti-PPCS or anti-PPCDC antibodies; exponentially growing cells in full medium; for Pank1/CoAsy also after 16 h serum starvation, serum starvation + 500 μM H2O2 for 10 min, and serum starvation + 1 μM insulin for 3 h or 6 h

Chain of EE-tagged Pank1β (pantothenate kinase 1β), stably overexpressed in HEK293 cells (Q8TE04 other isoform, or with tags, fused parts or gaps): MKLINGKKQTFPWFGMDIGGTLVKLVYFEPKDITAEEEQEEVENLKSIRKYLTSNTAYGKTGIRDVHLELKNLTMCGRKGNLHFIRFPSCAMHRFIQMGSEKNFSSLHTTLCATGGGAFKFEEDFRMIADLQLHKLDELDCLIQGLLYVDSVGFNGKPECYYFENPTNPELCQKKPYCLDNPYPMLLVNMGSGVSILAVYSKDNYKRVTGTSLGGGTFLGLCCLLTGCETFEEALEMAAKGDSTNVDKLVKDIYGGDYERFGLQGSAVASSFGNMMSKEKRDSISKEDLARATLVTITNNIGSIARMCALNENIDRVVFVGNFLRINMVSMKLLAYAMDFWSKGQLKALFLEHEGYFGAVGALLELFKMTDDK

## CoA synthase (CoAsy) (from UniProt Q13057 1-564) (enzyme)
  fold increase of the PLA signal after serum starvation or serum starvation + H2O2, against control cells: 2 fold
